Measured values from article PMC4243959, “Sequestration of latent TGF-β binding protein 1 into CADASIL-related Notch3-ECD deposits” (Acta Neuropathologica Communications, 2014).

Tests used:
[1] = molecular target: recombinant human Notch3 encompassing aa 40-467 (N3EGF1-11-Fc) (human) (UniProt Q9UM47); experiment: ELISA; solid-phase binding assay: 1 μg N3EGF1-11-Fc coated on Maxisorp plates in PBS overnight at 4°C, blocked with PBS/1% BSA; 50 μL conditioned supernatant of transfected HEK293T cells bound 1 h at room temperature; detection with anti-V5 or anti-LTBP-1 and anti-mouse-HRP; IgG1-Fc as control ligand
[2] = molecular target: the molecule itself; experiment: scanning for intensely fluorescent targets (SIFT); purified proteins labelled with different fluorescent dyes, pre-cleared at 100,000 g, incubated pairwise in solution; 64 nM LTBP-1 variants, 160 nM N3EGF1-5; confocal single-particle measurement after 24 h

For “full-length LTBP-1S (short human isoform of latent TGF-β binding protein 1, 1395 aa) with N-terminal HA tag and C-terminal V5-His tag (natural protein)”, the fold binding over the control ligand IgG-Fc [1] was 4.9 fold.

B1: LTBP-1ΔN containing a C-terminal V5-His tag (LTBP-1ΔN_V5) (domain or fragment, human, UniProt Q14766-2 528-1395, looked up)
chain: APEASTSSASQVIAPTQVTEINECTVNPDICGAGHCINLPVRYTCICYEGYRFSEQQRKCVDIDECTQVQHLCSQGRCENTEGSFLCICPAGFMASEEGTNCIDVDECLRPDVCGEGHCVNTVGAFRCEYCDSGYRMTQRGRCEDIDECLNPSTCPDEQCVNSPGSYQCVPCTEGFRGWNGQCLDVDECLEPNVCANGDCSNLEGSYMCSCHKGYTRTPDHKHCRDIDECQQGNLCVNGQCKNTEGSFRCTCGQGYQLSAAKDQCEDIDECQHRHLCAHGQCRNTEGSFQCVCDQGYRASGLGDHCEDINECLEDKSVCQRGDCINTAGSYDCTCPDGFQLDDNKTCQDINECEHPGLCGPQGECLNTEGSFHCVCQQGFSISADGRTCEDIDECVNNTVCDSHGFCDNTAGSFRCLCYQGFQAPQDGQGCVDVNECELLSGVCGEAFCENVEGSFLCVCADENQEYSPMTGQCRSRTSTDLDVDVDQPKEEKKECYYNLNDASLCDNVLAPNVTKQECCCTSGVGWGDNCEIFPCPVLGTAEFTEMCPKGKGFVPAGESSSEAGGENYKDADECLLFGQEICKNGFCLNTRPGYECYCKQGTYYDPVKLQCFDMDECQDPSSCIDGQCVNTEGSYNCFCTHPMVLDASEKRCIRPAESNEQIEETDVYQDLCWEHLSDEYVCSRPLVGKQTTYTECCCLYGEAWGMQCALCPLKDSDDYAQLCNIPVTGRRQPYGRDALVDFSEQYTPEADPYFIQDRFLNSFEELQAEECGILNGCENGRCVRVQEGYTCDCFDGYHLDTAKMTCVDVNECDELNNRMSLCKNAKCINTDGSYKCLCLPGYVPSDKPNYCTPLNTALNLEKDSDLE
modifications: fluorescent dye label (dye and site not stated)
notes: numbers count on: the short isoform of 1395 aa; source: HEK293E, purified (metal-ion matrix, via His tag); not shown: V5, C-terminal, kept; His, C-terminal, kept
B1: binds [2].
